Measurements taken from publication PMC7820290.

How the values were obtained:
Assay in all cases: co-condensation microscopy
N175-364 (SARS-CoV-2) = N175-364 (SARS-CoV-2) (UniProt P0DTC9)
N49-246 (SARS-CoV-2) = N49-246 (SARS-CoV-2) (UniProt P0DTC9)
N175-419 (SARS-CoV-2) = N175-419 (SARS-CoV-2) (UniProt P0DTC9)
[1] = biological target: SARS-CoV-2 nucleocapsid (N), wild type (SARS-CoV-2) (UniProt P0DTC9)
N1-246 (SARS-CoV-2) = N1-246 (SARS-CoV-2) (UniProt P0DTC9)

GGGAUUAAAGGUUUAUACCUUCCCAGGUAACAAACCAACCAACUUUCGAUCUCUUGUAGAUCUGUUCUCUAAACGAACUUUAAAAUCUGUGUGGCUGUCACUCGGCUGCAUGCUUAGUGCACUCACGCAGUAUAAUUAAUAACUAAUUACUGUCGUUGACAGGACACGAGUAACUCGUCUAUCUUCUGCAGGCUGCUUACGGUUUCGUCCGUGUUGCAGCCGAUCAUCAGCACAUCUAGGUUUCGUCCGGGUGUGACCGAAAGGUAAG [UTR265]
binding signal (% fluorescence in condensates) (N175-364 (SARS-CoV-2)): 8.4 | binding signal (% fluorescence in condensates) (N49-246 (SARS-CoV-2)): 18 | binding signal (% fluorescence in condensates) (N175-419 (SARS-CoV-2)): 9.3 | binding signal (% fluorescence in condensates) [1]: 35 | binding signal (% fluorescence in condensates) (N1-246 (SARS-CoV-2)): 13
